Reference: US20260022175A1 (Chugai, published 2026)

How the values were obtained:
human FcRn [1] = molecular target: T1, human FcRn (human, UniProt P55899 24-290; P61769 21-119); assay: SPR Biacore T200, Ab captured via Fab-kappa, pH 6.0, steady state
T1 construct: Prepared by the method of WO 2010/107110; also called hFcRn

human FcRn [2] = molecular target: T1, human FcRn; assay: SPR; KD of 04H1389-G1m/04L1615-k0MT divided by KD of variant
[3] = molecular target: T2, human FcγRIIa R allotype extracellular domain with C-terminal His-tag (human, UniProt P12318 34-217); assay: as above
T2 construct: extracellular domain; also called hFcγR IIa R
T2 sequence (looked up): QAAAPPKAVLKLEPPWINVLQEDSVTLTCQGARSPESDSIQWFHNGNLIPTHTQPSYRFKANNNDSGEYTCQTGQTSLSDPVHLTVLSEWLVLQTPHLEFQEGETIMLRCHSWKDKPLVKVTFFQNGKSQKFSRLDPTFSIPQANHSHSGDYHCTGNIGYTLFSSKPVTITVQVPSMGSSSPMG

[4] = molecular target: T3, human FcγRIa extracellular domain with C-terminal His-tag (human, UniProt P12314 16-292); assay: as above
T3 construct: extracellular domain; also called hFcγR Ia; hFcγRIa

[5] = molecular target: T4, human FcγRIIa H allotype extracellular domain with C-terminal His-tag (human, UniProt P12318 34-217); assay: as above
T4 construct: extracellular domain; also called hFcγR IIa H
T4 sequence (looked up): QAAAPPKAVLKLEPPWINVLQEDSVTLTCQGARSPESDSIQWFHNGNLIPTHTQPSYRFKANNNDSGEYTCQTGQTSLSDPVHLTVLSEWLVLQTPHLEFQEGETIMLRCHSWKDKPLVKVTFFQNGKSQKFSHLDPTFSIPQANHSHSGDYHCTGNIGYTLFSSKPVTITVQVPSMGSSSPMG

[6] = molecular target: T5, human FcγRIIIa V allotype extracellular domain with C-terminal His-tag (human, UniProt P08637 17-208); assay: as above
T5 construct: extracellular domain; also called hFcγR IIIa V

[7] = molecular target: T6, human FcγRIIb extracellular domain with C-terminal His-tag (human, UniProt P31994 43-217); assay: SPR; binding amount divided by that of 04H1389-G1m/04L1615-k0MT
T6 construct: extracellular domain; also called hFcγR IIb
T6 sequence (looked up): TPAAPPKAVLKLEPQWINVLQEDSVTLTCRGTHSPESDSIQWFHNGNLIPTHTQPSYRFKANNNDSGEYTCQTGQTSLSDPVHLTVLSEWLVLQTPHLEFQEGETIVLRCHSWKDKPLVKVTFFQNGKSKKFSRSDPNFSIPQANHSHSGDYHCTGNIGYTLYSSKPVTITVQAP

[8] = molecular target: T7, human FcγRIIIa F allotype extracellular domain with C-terminal His-tag (human, UniProt P08637 17-208); assay: SPR Biacore T200, Ab captured via Fab-kappa, pH 7.4, 25C;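 also: each FcγR flowed as analyte over the captured antibodies, KD derived by 1:1 Langmuir or steady-state affinity fitting depending on the receptor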
T7 construct: extracellular domain; also called hFcγR IIIa F
Protocol: (§1) The interaction between the generated antibodies and human FcγRs was analyzed using Biacore T200. 50 mM Na-Phosphate, 150 mM NaCl, 0.05% Tween20 (pH 7.4) was used as the running buffer, and the assay was performed at 25° C. For the sensor chip, Series S SA (GE Healthcare) chips onto which CaptureSelect Human Fab-kappa Kinetics Biotin Conjugate (Thermo Fisher Scientific) was immobilized were used. The antibodies of interest were captured onto these chips and each FcγR diluted in the running buffer was allowed to interact with them. Chips were regenerated with 10 mM Glycine-HCl (pH 1.5) and 25 mM NaOH, and assay was performed by repeatedly capturing antibodies. The dissociation constants KD (mol/L) for FcγRs of each antibody were calculated using Biacore T200 Evaluation Software 2.0, and using the 1:1 Langmuir binding model for FcγRIa and FcγRIIIa and the steady state affinity model for FcγRIIa. For FcγRIIb, the binding amount of FcγRIIb per unit amount of antibody was calculated by correcting the binding amount of FcγRIIb obtained from the sensorgram obtained by the measurement with the amount of antibody captured onto the chip surface.

[9] = molecular target: T2, human FcγRIIa R allotype extracellular …; assay: as above
Protocol: as §1

[10] = molecular target: T3, human FcγRIa extracellular domain with …; assay: as above
Protocol: as §1

[11] = molecular target: T4, human FcγRIIa H allotype extracellular …; assay: as above
Protocol: as §1

[12] = molecular target: T5, human FcγRIIIa V allotype extracellular …; assay: as above
Protocol: as §1

[13] = molecular target: T6, human FcγRIIb extracellular domain with …; assay: SPR; FcγRIIb bound amount per unit captured Ab

T7 sequence (P08637 17-208): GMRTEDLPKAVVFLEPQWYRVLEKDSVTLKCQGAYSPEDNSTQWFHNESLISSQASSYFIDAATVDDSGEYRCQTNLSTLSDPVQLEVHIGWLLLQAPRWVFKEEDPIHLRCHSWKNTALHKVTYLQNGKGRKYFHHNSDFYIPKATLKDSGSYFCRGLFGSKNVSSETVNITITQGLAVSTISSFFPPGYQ
T3 sequence (P12314 16-292): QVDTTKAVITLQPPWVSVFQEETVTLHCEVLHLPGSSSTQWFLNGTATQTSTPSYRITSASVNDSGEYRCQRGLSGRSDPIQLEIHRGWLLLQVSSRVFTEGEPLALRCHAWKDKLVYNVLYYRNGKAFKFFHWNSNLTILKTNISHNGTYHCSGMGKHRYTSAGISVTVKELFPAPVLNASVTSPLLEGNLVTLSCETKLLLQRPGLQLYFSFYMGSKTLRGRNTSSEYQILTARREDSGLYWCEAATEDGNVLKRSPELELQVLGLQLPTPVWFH
T5 sequence (P08637 17-208 F176V): as the sequence (P08637 17-208) above, with F160V counted along it
T1 sequence (P55899 24-290 limits assumed, chain 1 of 2): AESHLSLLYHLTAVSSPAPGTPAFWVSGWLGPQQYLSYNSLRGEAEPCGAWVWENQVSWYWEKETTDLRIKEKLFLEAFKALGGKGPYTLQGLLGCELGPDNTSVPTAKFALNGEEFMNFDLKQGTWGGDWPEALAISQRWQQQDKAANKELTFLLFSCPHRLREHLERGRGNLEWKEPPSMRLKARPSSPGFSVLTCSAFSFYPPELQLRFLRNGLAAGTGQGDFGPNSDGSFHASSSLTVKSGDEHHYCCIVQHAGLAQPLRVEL
T1 sequence (P61769 21-119 limits assumed, chain 2 of 2): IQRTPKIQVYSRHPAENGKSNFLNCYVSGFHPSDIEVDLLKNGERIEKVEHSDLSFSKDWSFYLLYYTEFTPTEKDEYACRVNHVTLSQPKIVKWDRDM

B1: 04H1389-Km473/04L1615-k0MT//04H1389-Hm482/04L1615-k0MT (antibody)
heavy 1: EVQLVESGGGLVKPGGSLRLSCAASGFTFSSKTMNWVRQAPGKGLEWVSSISTQSHYIYYAESVKGRFTISRDNAKNSLYLQMNSLRAEDTAVYYCARYGKREDMLWVFDYWGQGTLVTVSSASTKGPSVFPLAPSSKSTSGGTAALGCLVKDYFPEPVTVSWNSGALTSGVHTFPAVLQSSGLYSLSSVVTVPSSSLGTQTYICNVNHKPSNTKVDKRVEPKSCDKTHTCPPCPAPEFQWGPMVFLFPPKPKDVLMISRTPEVTCVVVDVSDEEPEVKFNWYVDGVEVHNAKTKPREEQYNATYRVVSVLPVLHQDWLNGKEYKCKVSNDALPAPIEKTISKAKGQPREPQVCTLPPSREEMTKNQVSLWCLVKGFYPSDIAVEWESNGQPENNYKTTPPVLDSDGSFFLYSKLTVDKSRWQQGNVFSCSVMHEALHAHTTRKELSLSP
heavy 2: EVQLVESGGGLVKPGGSLRLSCAASGFTFSSKTMNWVRQAPGKGLEWVSSISTQSHYIYYAESVKGRFTISRDNAKNSLYLQMNSLRAEDTAVYYCARYGKREDMLWVFDYWGQGTLVTVSSASTKGPSVFPLAPSSKSTSGGTAALGCLVKDYFPEPVTVSWNSGALTSGVHTFPAVLQSSGLYSLSSVVTVPSSSLGTQTYICNVNHKPSNTKVDKRVEPKSCDKTHTCPPCPAPELLAGPSVFLFPPKPKDVLMISRTPEVTCVVVDVSHEEPEVKFNWYVDGVEVHNAKTKPREEQYNATYRVVSVLPVLHQDWLNGKEYKCKVSNDALPKPDEETISKAKGQPREPQVYTLPPSRCEMTKNQVSLSCAVKGFYPSDIAVEWESNGQPENNYKTTPPVLDSDGSFFLVSKLTVDKSRWQQGNVFSCSVMHEALHAHTTRKELSLSP
light: DIVMTQSPLSLPVTPGEPASISCQGPSTGVGDYNYVHWYQQKPGQAPRLLIYFTSKKPSGVPDRFSGSGSGTDFTLKISRVEAEDVGVYYCQTYAAPLGPMFGQGTKLEIKRTVAAPSVFIFPPSDEQLKSGTASVVCLLNNFYPREAKVQWKVDNALQSGNSQESVTEQDSKDSTYSLSSTLTLSKADYEKHKVYACEVTHQGLSSPVTKSFNRGEC
notes: Heterodimerized antibody with N434A/Y436T/Q438R/S440E
Q: With B1 as the binder, how does the Kd (human FcRn [1]) read?
A: 460 nM

Q: And the “Relative value to KD between G1m and hFcRn” value (human FcRn [2])?
A: 2.8

Q: What about the “Relative value to KD between G1m and hFcγRs” value [3] of the same binder?
A: 8.2

Q: And the “Relative value to KD between G1m and hFcγRs” value [4]?
A: 0.7

Q: What about the “Relative value to KD between G1m and hFcγRs” value [5] of the same binder?
A: 12.3

Q: And the “Relative value to KD between G1m and hFcγRs” value [6]?
A: 705

Q: What about the Relative binding amount [7] of the same binder?
A: 2.1

Q: What about the Kd [8] of the same binder?
A: 2.6 nM

Q: And the Kd [9]?
A: 180 nM

Q: And the Kd [10]?
A: 0.062 nM

Q: And the Kd [11]?
A: 87 nM

Q: And the Kd [12]?
A: 1.3 nM

Q: What about the Binding amount [13] of the same binder?
A: 0.024

B2: 04H1389-Km461/04L1615-k0MT//04H1389-Hm443/04L1615-k0MT (antibody, human IgG1, kappa)
heavy 1: EVQLVESGGGLVKPGGSLRLSCAASGFTFSSKTMNWVRQAPGKGLEWVSSISTQSHYIYYAESVKGRFTISRDNAKNSLYLQMNSLRAEDTAVYYCARYGKREDMLWVFDYWGQGTLVTVSSASTKGPSVFPLAPSSKSTSGGTAALGCLVKDYFPEPVTVSWNSGALTSGVHTFPAVLQSSGLYSLSSVVTVPSSSLGTQTYICNVNHKPSNTKVDKRVEPKSCDKTHTCPPCPAPEFQWGPMVFLFPPKPKDVLMISRTPEVTCVVVDVSDEEPEVKFNWYVDGVEVHNAKTKPREEQYNATYRVVSVLPVLHQDWLNGKEYKCKVSNDALPAPEEKTISKAKGQPREPQVCTLPPSREEMTKNQVSLWCLVKGFYPSDIAVEWESNGQPENNYKTTPPVLDSDGSFFLYSKLTVDKSRWQQGNVFSCSVMHEALHNHYTQKSLSLSP
heavy 2: EVQLVESGGGLVKPGGSLRLSCAASGFTFSSKTMNWVRQAPGKGLEWVSSISTQSHYIYYAESVKGRFTISRDNAKNSLYLQMNSLRAEDTAVYYCARYGKREDMLWVFDYWGQGTLVTVSSASTKGPSVFPLAPSSKSTSGGTAALGCLVKDYFPEPVTVSWNSGALTSGVHTFPAVLQSSGLYSLSSVVTVPSSSLGTQTYICNVNHKPSNTKVDKRVEPKSCDKTHTCPPCPAPELLAGPSVFLFPPKPKDVLMISRTPEVTCVVVDVSHEEPEVKFNWYVDGVEVHNAKTKPREEQYNATYRVVSVLPVLHQDWLNGKEYKCKVSNDALPAPEEETISKAKGQPREPQVYTLPPSRCEMTKNQVSLSCAVKGFYPSDIAVEWESNGQPENNYKTTPPVLDSDGSFFLVSKLTVDKSRWQQGNVFSCSVMHEALHNHYTQKSLSLSP
light: DIVMTQSPLSLPVTPGEPASISCQGPSTGVGDYNYVHWYQQKPGQAPRLLIYFTSKKPSGVPDRFSGSGSGTDFTLKISRVEAEDVGVYYCQTYAAPLGPMFGQGTKLEIKRTVAAPSVFIFPPSDEQLKSGTASVVCLLNNFYPREAKVQWKVDNALQSGNSQESVTEQDSKDSTYSLSSTLTLSKADYEKHKVYACEVTHQGLSSPVTKSFNRGEC
notes: Heterodimerized antibody
Q: With B2 as the binder, how does the Kd (human FcRn [1]) read?
A: 1700 nM

Q: And the “Relative value to KD between G1m and hFcRn” value (human FcRn [2])?
A: 0.7

Q: And the “Relative value to KD between G1m and hFcγRs” value [3]?
A: 5.8

Q: What about the “Relative value to KD between G1m and hFcγRs” value [4] of the same binder?
A: 1.8

Q: What about the “Relative value to KD between G1m and hFcγRs” value [5] of the same binder?
A: 5.7

Q: What about the “Relative value to KD between G1m and hFcγRs” value [6] of the same binder?
A: 1620

Q: What about the Relative binding amount [7] of the same binder?
A: 2.1

Q: And the Kd [8]?
A: 1.2 nM

Q: And the Kd [9]?
A: 260 nM

Q: And the Kd [10]?
A: 0.025 nM

Q: What about the Kd [11] of the same binder?
A: 190 nM

Q: And the Kd [12]?
A: 0.56 nM

Q: And the Binding amount [13]?
A: 0.024

B3: 04H1389-Km462/04L1615-k0MT//04H1389-Hm445/04L1615-k0MT (antibody, human IgG1, kappa)
heavy 1: EVQLVESGGGLVKPGGSLRLSCAASGFTFSSKTMNWVRQAPGKGLEWVSSISTQSHYIYYAESVKGRFTISRDNAKNSLYLQMNSLRAEDTAVYYCARYGKREDMLWVFDYWGQGTLVTVSSASTKGPSVFPLAPSSKSTSGGTAALGCLVKDYFPEPVTVSWNSGALTSGVHTFPAVLQSSGLYSLSSVVTVPSSSLGTQTYICNVNHKPSNTKVDKRVEPKSCDKTHTCPPCPAPEFQWGPMVFLFPPKPKDVLMISRTPEVTCVVVDVSDEEPEVKFNWYVDGVEVHNAKTKPREEQYNATYRVVSVLPVLHQDWLNGKEYKCKVSNDALPAPIEKTISKAKGQPREPQVCTLPPSREEMTKNQVSLWCLVKGFYPSDIAVEWESNGQPENNYKTTPPVLDSDGSFFLYSKLTVDKSRWQQGNVFSCSVMHEALHNHYTQKSLSLSP
heavy 2: EVQLVESGGGLVKPGGSLRLSCAASGFTFSSKTMNWVRQAPGKGLEWVSSISTQSHYIYYAESVKGRFTISRDNAKNSLYLQMNSLRAEDTAVYYCARYGKREDMLWVFDYWGQGTLVTVSSASTKGPSVFPLAPSSKSTSGGTAALGCLVKDYFPEPVTVSWNSGALTSGVHTFPAVLQSSGLYSLSSVVTVPSSSLGTQTYICNVNHKPSNTKVDKRVEPKSCDKTHTCPPCPAPELLAGPSVFLFPPKPKDVLMISRTPEVTCVVVDVSHEEPEVKFNWYVDGVEVHNAKTKPREEQYNATYRVVSVLPVLHQDWLNGKEYKCKVSNDALPKPDEETISKAKGQPREPQVYTLPPSRCEMTKNQVSLSCAVKGFYPSDIAVEWESNGQPENNYKTTPPVLDSDGSFFLVSKLTVDKSRWQQGNVFSCSVMHEALHNHYTQKSLSLSP
light: DIVMTQSPLSLPVTPGEPASISCQGPSTGVGDYNYVHWYQQKPGQAPRLLIYFTSKKPSGVPDRFSGSGSGTDFTLKISRVEAEDVGVYYCQTYAAPLGPMFGQGTKLEIKRTVAAPSVFIFPPSDEQLKSGTASVVCLLNNFYPREAKVQWKVDNALQSGNSQESVTEQDSKDSTYSLSSTLTLSKADYEKHKVYACEVTHQGLSSPVTKSFNRGEC
notes: Heterodimerized antibody
Q: With B3 as the binder, how does the Kd (human FcRn [1]) read?
A: 1700 nM

Q: And the “Relative value to KD between G1m and hFcRn” value (human FcRn [2])?
A: 0.8

Q: What about the “Relative value to KD between G1m and hFcγRs” value [3] of the same binder?
A: 9.5

Q: What about the “Relative value to KD between G1m and hFcγRs” value [4] of the same binder?
A: 0.9

Q: And the “Relative value to KD between G1m and hFcγRs” value [5]?
A: 14.4

Q: And the “Relative value to KD between G1m and hFcγRs” value [6]?
A: 811

Q: And the Relative binding amount [7]?
A: 2.6

Q: What about the Kd [8] of the same binder?
A: 2.2 nM

Q: And the Kd [9]?
A: 160 nM

Q: What about the Kd [10] of the same binder?
A: 0.048 nM

Q: What about the Kd [11] of the same binder?
A: 74 nM

Q: What about the Kd [12] of the same binder?
A: 1.1 nM

Q: And the Binding amount [13]?
A: 0.029
